Assay results as given in publication PMC11772769 (2024).
Where no end group is shown, it is not given here. The star is where a group is joined. 5FAM = O=C1OC2(c3ccc(O)cc3Oc3cc(O)ccc32)c2ccc(C(=O)*)cc21

T1: MBP-SNX17 D467X (UniProt Q15036 1-466)
T1 chain: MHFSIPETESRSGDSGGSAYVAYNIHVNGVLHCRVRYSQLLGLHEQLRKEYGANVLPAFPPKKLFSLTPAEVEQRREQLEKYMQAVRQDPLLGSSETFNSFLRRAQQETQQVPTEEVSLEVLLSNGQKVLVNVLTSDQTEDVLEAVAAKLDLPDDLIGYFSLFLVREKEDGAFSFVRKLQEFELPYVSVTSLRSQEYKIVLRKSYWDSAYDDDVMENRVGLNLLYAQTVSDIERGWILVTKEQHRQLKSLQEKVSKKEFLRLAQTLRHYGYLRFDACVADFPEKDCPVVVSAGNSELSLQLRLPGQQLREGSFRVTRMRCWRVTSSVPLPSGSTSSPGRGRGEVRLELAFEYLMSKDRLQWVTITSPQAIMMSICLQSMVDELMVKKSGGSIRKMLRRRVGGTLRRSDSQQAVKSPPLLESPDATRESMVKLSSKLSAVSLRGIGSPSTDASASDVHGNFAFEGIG

T2: MBP-SNX17 (full-length, wild-type) (UniProt Q15036 1-470)
T2 chain: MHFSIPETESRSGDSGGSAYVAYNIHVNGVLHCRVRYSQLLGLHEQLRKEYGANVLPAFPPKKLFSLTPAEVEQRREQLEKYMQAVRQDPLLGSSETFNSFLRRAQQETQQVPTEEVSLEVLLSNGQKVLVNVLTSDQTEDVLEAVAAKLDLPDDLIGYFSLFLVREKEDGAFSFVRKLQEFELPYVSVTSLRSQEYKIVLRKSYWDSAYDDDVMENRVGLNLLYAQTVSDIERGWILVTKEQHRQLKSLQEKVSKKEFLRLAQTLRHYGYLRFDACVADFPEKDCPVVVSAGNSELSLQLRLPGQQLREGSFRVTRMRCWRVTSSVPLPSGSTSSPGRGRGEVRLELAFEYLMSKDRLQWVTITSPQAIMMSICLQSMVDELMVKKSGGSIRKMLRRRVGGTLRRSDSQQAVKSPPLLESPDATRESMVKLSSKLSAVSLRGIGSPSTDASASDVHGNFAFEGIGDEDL

T3: MBP-SNX17 L470G (UniProt Q15036 1-470, L470G)
T3 sequence: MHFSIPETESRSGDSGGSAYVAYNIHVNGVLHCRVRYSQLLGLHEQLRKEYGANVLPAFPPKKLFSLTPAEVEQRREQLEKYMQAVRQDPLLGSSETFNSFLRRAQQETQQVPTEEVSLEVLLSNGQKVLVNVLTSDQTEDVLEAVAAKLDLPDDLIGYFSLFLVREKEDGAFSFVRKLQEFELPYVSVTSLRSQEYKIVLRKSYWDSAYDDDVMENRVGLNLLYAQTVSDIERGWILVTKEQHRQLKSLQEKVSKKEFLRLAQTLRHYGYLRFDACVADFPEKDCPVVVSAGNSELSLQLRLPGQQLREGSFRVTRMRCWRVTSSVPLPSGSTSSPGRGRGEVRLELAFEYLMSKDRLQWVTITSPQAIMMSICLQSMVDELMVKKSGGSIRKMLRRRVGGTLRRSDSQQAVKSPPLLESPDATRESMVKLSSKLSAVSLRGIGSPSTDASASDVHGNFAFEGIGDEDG


Experiments:
Experiment in all cases: FP
MBP-SNX17 D467X = target: T1, MBP-SNX17 D467X
[1] = target: T2, MBP-SNX17 (full-length, wild-type)
MBP-SNX17 L470G = target: T3, MBP-SNX17 L470G

Binder	Kd (MBP-SNX17 D467X)	Kd [1]	Kd (MBP-SNX17 L470G)
5FAM-MNVEIGNPTYKMYE [Peptide LRP1_(14mer)]	8500 nM	3000 nM	2800 nM
5FAM-KLITYDNPAYEGID [Peptide L2_(14mer)]	3200 nM	1100 nM	1100 nM
